Target: T1, Cys2-pilin-C (Streptococcus pyogenes serotype M1, UniProt Q9A1S2 18-299, N-terminal Cys2 linker attached to the shell surface of the nanocrystal (QD or dot-in-rod HNC) during shell synthesis)
T1 construct: Tested only as a nanocrystal conjugate; also called QD-pilin-C; CdSe/CdS QD-pilin-C conjugates
T1 sequence: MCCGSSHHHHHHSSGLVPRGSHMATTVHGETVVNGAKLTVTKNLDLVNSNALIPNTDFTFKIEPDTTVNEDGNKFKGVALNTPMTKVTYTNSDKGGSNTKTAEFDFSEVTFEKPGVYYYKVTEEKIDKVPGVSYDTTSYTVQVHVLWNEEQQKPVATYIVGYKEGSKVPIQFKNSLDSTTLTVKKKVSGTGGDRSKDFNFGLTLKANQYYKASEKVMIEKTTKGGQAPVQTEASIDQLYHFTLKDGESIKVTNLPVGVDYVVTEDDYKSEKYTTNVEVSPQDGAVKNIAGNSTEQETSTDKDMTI
Experiment: TEM and HRTEM (FIGS. 11, 11A and 11B)

B1: CsgAHisTag amyloid fibrils (other)
chain: GVVPQYGGGGNHGGGGNNSGPNHHHHHHHSELNIYQYGGGNSALALQTDARNSDLTITQHGGGNGADVGQGSDDSSIDLTQRGFGNSATLDQWNGKNSEMTVKQFGGGNGAAVDQTASNSSVNVTQVGFGNNATAHQYHHHHHHH
notes: Fibrils composed only of CsgAHisTag subunits, used as a control for QD-pilin-C
B1: no binding.

Source: US20160238591A1 (MIT, published 2016)
